# In US20090208447A1 (MEDIGENE, published 2009):
# Target: HLA-A*0201 loaded with the Carcinoembryonic antigen (CEA)-derived … peptide (biotinylated on the C-terminal biotinylation tag)
# Test: SPR (Biacore), Example 4
Kd,koff,Binder
≤ 1000 nM,≤ 2 s⁻¹,SEQ ID NO 62 (receptor) MHLPKPTLWAEPGSVITMDQPVTLRCQGGQETQEYRLYREKKTAPWITRIPQELVKKGQFPIPSITWEHAGRYRCYYGSDTSQWSASSDPLELVVTGVYIKPTLSAQPSPVVNSGGNVTLQCDSQVAFDGFILCKEGEDEHPQCLNSQPHARGSSRAIFSVGPVSPSRRWWYRCYAYDSNSPYEWSLPSDLLELDVDG
≤ 1000 nM,≤ 2 s⁻¹,SEQ ID NO 68 (receptor) MHLPKPTLWAEPGSVITLRSPVTLRCQGGQETQEYRLYREKKTAPWITRIPQELVKKGQFPIPSITWEHAGRYRCYYGSDTSQWSASSDPLELVVTGVYIKPTLSAQPSPVVNSGGNVTLQCDSQVAFDGFILCKEGEDEHPQCLNSQPHARGSSRAIFSVGPVSPSRRWWYRCYAYDSNSPYEWSLPSDLLELDVDG
≤ 1000 nM,≤ 2 s⁻¹,SEQ ID NO 64 (receptor) MHLPKPTLWAEPGSVITMDQPVTLRCQGGQETQEYRLYREKKTAPWITLIPQELVKKGQFPIPSITWEHAGRYRCYYGSDTSQWSASSDPLELVVTGVYIKPTLSAQPSPVVNSGGNVTLQCDSQVAFDGFILCKEGEDGHPQCLNSQPHARGSSRAIFSVGPVSPSRRWWYWCYAYDSNSPYEWSLPSDLLELDVDG
≤ 1000 nM,≤ 2 s⁻¹,SEQ ID NO 69 (receptor) MHLPKPTLWAEPGSVITLQSPVTLRCQGGQETQEYRLYREKKTAPWITRIPQELVKKGQFPIPSITWEHAGRYRCYYGSDTSQWSASSDPLELVVTGVYIKPTLSAQPSPVVNSGGNVTLQCDSQVAFDGFILCKEGEDEHPQCLNSQPHARGSSRAIFSVGPVSPSRRWWYRCYAYDSNSPYEWSLPSDLLELDVDG
≤ 1000 nM,≤ 2 s⁻¹,SEQ ID NO 66 (receptor) MHLPKPTLWAEPGSVITLGQPVTLRCQGGQETQEYRLYREKKTAPWITRIPQELVKKGQFPIPSITWEHAGRYRCYYGSDTSQWSASSDPLELVVTGVYIKPTLSAQPSPVVNSGGNVTLQCDSQVAFDGFILCKEGEDEHPQCLNSQPHARGSSRAIFSVGPVSPSRRWWYRCYAYDSNSPYEWSLPSDLLELDVDG
≤ 1000 nM,≤ 2 s⁻¹,SEQ ID NO 63 (receptor) MHLPKPTLWAEPGSVITMDQPVTLRCQGGQETQEYRLYREKKTAPWITRIPQELVKKGQFPIPSITWEHAGRYRCYYGSDTSQWSASSDPLELVVTGVYIKPTLSAQPSPVVNSGGNVTLQCDSQVAFDGFILCKEGEDEHPQCLNSQPHARGSSRAIFSVGPVSPSRRWRYRCYAYDSNSPYEWSLPSDLLELDVDG
≤ 1000 nM,≤ 2 s⁻¹,SEQ ID NO 72 (receptor) MHLPKPTLWAEPGSVITMDQPVTLRCQGGQETQEYRLYREKKTAPWITRIPQELVKKGQFPIPSITWEHAGRYRCMQYTLTAGRSESSDPLELVVTGVYIKPTLSAQPSPVVNSGGNVTLQCDSQVAFDGFILCKEGEDEHPQCLNSQPHARGSSRAIFSVGPVSPSRRWWYRCYAYDSNSPYEWSLPSDLLELDVDG
≤ 1000 nM,≤ 2 s⁻¹,SEQ ID NO 65 (receptor) MHLPKPTLWAEPGSVITMDQPVTLRCQGGQETQEYRLYRERKTAPWITRIPQELVKKGQFPIPSITWEHAGRYRCYYGSDTSQWSASSDPLELVVTGVYIKPTLSAQPSPVVNSGGNVTLQCDSQVAFDGFILCKEGEDEHPQCLNSQPHARGSSRAIFSVGPVSPSRRWWYRCYAYDSNSPYEWSLPSDLLELDVDG
≤ 1000 nM,≤ 2 s⁻¹,SEQ ID NO 70 (receptor) MHLPKPTLWAEPGSVITLESPVTLRCQGGQETQEYRLYREKKTAPWITRIPQELVKKGQFPIPSITWEHAGRYRCYYGSDTSQWSASSDPLELVVTGVYIKPTLSAQPSPVVNSGGNVTLQCDSQVAFDGFILCKEGEDEHPQCLNSQPHARGSSRAIFSVGPVSPSRRWWYRCYAYDSNSPYEWSLPSDLLELDVDG
≤ 1000 nM,≤ 2 s⁻¹,SEQ ID NO 71 (receptor) MHLPKPTLWAEPGSVITMDQPVTLRCQGGQETQEYRLYREKKTAPWITRIPQELVKKGQFPIPSITWEHAGRYRCYYGTQTAGRSESSDPLELVVTGVYIKPTLSAQPSPVVNSGGNVTLQCDSQVAFDGFILCKEGEDEHPQCLNSQPHARGSSRAIFSVGPVSPSRRWWYRCYAYDSNSPYEWSLPSDLLELDVDG
≤ 1000 nM,≤ 2 s⁻¹,SEQ ID NO 67 (receptor) MHLPKPTLWAEPGSVITLGSPVTLRCQGGQETQEYRLYREKKTAPWITRIPQELVKKGQFPIPSITWEHAGRYRCYYGSDTSQWSASSDPLELVVTGVYIKPTLSAQPSPVVNSGGNVTLQCDSQVAFDGFILCKEGEDEHPQCLNSQPHARGSSRAIFSVGPVSPSRRWWYRCYAYDSNSPYEWSLPSDLLELDVDG
≤ 1000 nM,≤ 2 s⁻¹,SEQ ID NO 60 (receptor) MGHLPKPTLWAEPGSVITMDQPVTLRCQGGQETQEYRLYREKKTAPWITRIPQELVKKGQFPIPSITWEHAGRYRCIGRSQTSQWSASSDPLELVVTGIYLAPTLSAQPSPVVNSGGNVTLQCDSQVAFDGFILCKEGEDEHPQCLNSQPHARGSSRAIFSVGPVSPSRRWWYRCYAYDSNSPYEWSLPSDLLELLVL
≤ 1000 nM,≤ 2 s⁻¹,SEQ ID NO 61 (receptor) MGHLPKPTLWAEPGSVITLGQPVTLRCQGGQETQEYRLYREKKTAPWITRIPQELVKKGQFPIPSITWEHAGRYRCIGRSQTSQWSASSDPLELVVTGIYLAPTLSAQPSPVVNSGGNVTLQCDSQVAFDGFILCKEGEDEHPQCLNSQPHARGSSRAIFSVGPVSPSRRWWYRCYAYDSNSPYEWSLPSDLLELLVL
≤ 1000 nM,≤ 2 s⁻¹,SEQ ID NO 50 (receptor) MGHLPKPTLWAEPGSVITQGSPVTLRCQGGQETQEYRLYREKKTAPWITRIPQELVKKGQFPIPSITWEHAGRYRCYYGSDTAGRSESSDPLELVVTGIYKAPTLSAQPSPVVNSGGNVTLQCDSQVAFDGFILCKEGEDEHPQCLNSQPHARGSSRAIFSVGPVSPGRRWWYRCYAYDSNSPYEWSLPSDLLELLVL
≤ 1000 nM,≤ 2 s⁻¹,SEQ ID NO 56 (receptor) MGHLPKPTLWAEPGSVITMDQPVTLRCQGGQETQEYRLYREKKTAPWITRIPQELVKKGQFPIPSITWEHAGRYRCYYGSDTAGRSESSDPLELVVTGIYLAPTLSAQPSPVVNSGGNVTLQCDSQVAFDGFILCKEGEDEHPQCLNSQPHARGSSRAIFSVGPVSPSRRWWYRCYAYDSNSPYEWSLPSDLLELLVL
≤ 1000 nM,≤ 2 s⁻¹,SEQ ID NO 59 (receptor) MGHLPKPTLWAEPGSVITLGQPVTLRCQGGQETQEYRLYREKKTAPWITRIPQELVKKGQFPIPSITWEHAGRYRCYYGSDTSQWSASSDPLELVVTGIYLAPTLSAQPSPVVNSGGNVTLQCDSQVAFDGFILCKEGEDEHPQCLNSQPHARGSSRAIFSVGPVSPSRRWWYRCYAYDSNSPYEWSLPSDLLELLVL
≤ 1000 nM,≤ 2 s⁻¹,SEQ ID NO 57 (receptor) MGHLPKPTLWAEPGSVITLGQPVTLRCQGGQETQEYRLYREKKTAPWITRIPQELVKKGQFPIPSITWEHAGRYRCYYGSDTAGRSESSDPLELVVTGIYLAPTLSAQPSPVVNSGGNVTLQCDSQVAFDGFILCKEGEDEHPQCLNSQPHARGSSRAIFSVGPVSPSRRWWYRCYAYDSNSPYEWSLPSDLLELLVL
≤ 1000 nM,≤ 2 s⁻¹,SEQ ID NO 58 (receptor) MGHLPKPTLWAEPGSVITMDQPVTLRCQGGQETQEYRLYREKKTAPWITRIPQELVKKGQFPIPSITWEHAGRYRCYYGSDTSQWSASSDPLELVVTGIYLAPTLSAQPSPVVNSGGNVTLQCDSQVAFDGFILCKEGEDEHPQCLNSQPHARGSSRAIFSVGPVSPSRRWWYRCYAYDSNSPYEWSLPSDLLELLVL
≤ 1000 nM,≤ 2 s⁻¹,SEQ ID NO 55 (receptor) MGHLPKPTLWAEPGSVITQGSPVTLRCQGGQETQEYRLYREKKTAPWITRIPQELVKKGQFPIPSITWEHAGRYRCYYGSDTAGRSESSDPLELVVTGIYQKPTLSAQPSPVVNSGGNVTLQCDSQVAFDGFILCKEGEDEHPQCLNSQPHARGSSRAIFSVGPVSPSRRWWYRCYAYDSNSPYEWSLPSDLLELLVL
≤ 1000 nM,≤ 2 s⁻¹,SEQ ID NO 54 (receptor) MGHLPKPTLWAEPGSVITQGSPVTLRCQGGQETQEYRLYREKKTAPWITRIPQELVKKGQFPIPSITWEHAGRYRCYYGSDTAGRSESSDPLELVVTGIYKQPTLSAQPSPVVNSGGNVTLQCDSQVAFDGFILCKEGEDEHPQCLNSQPHARGSSRAIFSVGPVSPGRRWWYRCYAYDSNSPYEWSLPSDLLELLVL
≤ 1000 nM,≤ 2 s⁻¹,SEQ ID NO 52 (receptor) MGHLPKPTLWAEPGSVITQGSPVTLRCQGGQETQEYRLYREKKTAPWITRIPQELVKKGQFPIPSITWEHAGRYRCYYGSDTAGRSESSDPLELVVTGIYQAPTLSAQPSPVVNSGGNVTLQCDSQVAFDGFILCKEGEDEHPQCLNSQPHARGSSRAIFSVGPVSPGRRWWYRCYAYDSNSPYEWSLPSDLLELLVL
≤ 1000 nM,≤ 2 s⁻¹,SEQ ID NO 51 (receptor) MGHLPKPTLWAEPGSVITQGSPVTLRCQGGQETQEYRLYREKKTAPWITRIPQELVKKGQFPIPSITWEHAGRYRCYYGSDTAGRSESSDPLELVVTGIYQRPTLSAQPSPVVNSGGNVTLQCDSQVAFDGFILCKEGEDEHPQCLNSQPHARGSSRAIFSVGPVSPGRRWWYRCYAYDSNSPYEWSLPSDLLELLVL
≤ 1000 nM,≤ 2 s⁻¹,SEQ ID NO 53 (receptor) MGHLPKPTLWAEPGSVITQGSPVTLRCQGGQETQEYRLYREKKTAPWITRIPQELVKKGQFPIPSITWEHAGRYRCYYGSDTAGRSESSDPLELVVTGIYLQPTLSAQPSPVVNSGGNVTLQCDSQVAFDGFILCKEGEDEHPQCLNSQPHARGSSRAIFSVGPVSPGRRWWYRCYAYDSNSPYEWSLPSDLLELLVL
